Measurements from patent US20250302956A1.

What was measured:
Experiment in all cases: cell-based or functional assay
[1] = target: LAMWITQC (SEQ ID NO: 2) presented by HLA-A02 on T2 cells (human)
[2] = target: LLMWITQC (SEQ ID NO: 1) presented by HLA-A02 on T2 cells (human)
[3] = target: NY-ESO-1 peptide … (SEQ ID NO: 40) presented by HLA-A02 on T2 cells (human)

## native 1G4-α95: TS TCR
[1]
  average log 2FC in PresentER library coculture screen, CD8-native 1G4-α95: TS cells (log2 fold change): -4
[2]
  average log 2FC in PresentER library coculture screen, CD8-native 1G4-α95: TS cells (log2 fold change): -5
[3]
  average log 2FC in PresentER library coculture screen, CD8-native 1G4-α95: TS cells (log2 fold change): -6.1
